Experimental data from the supplement of paper PMC7877785.
± gives the uncertainty stated by the source.

Experiment: self-splicing fitness, log relative to wild type (ln ratio); higher = more splicing; Tetrahymena group I intron in knt gene, E. coli kanamycin selection, DiMSum; sequences stand for … in CUCUCU…GGAGGGAAAAGUUAUCAGGCAUGCACCUGGUAGCUAGUCUUUAAACCAAUAGAUUGCAUCGGUUUAAAAGGCAAGACCGUCAAAUUGCGGGAAAGGGGUCAACAGCCGUUCAGUACCAAGUCUCAGGGGAAACUUUGAGAUGGCCUUGCAAAGGGUAUGGUAAUAAGCUGACGGACAUGGUCCUAACCACGCAGCCAAGUCCUAAGUCAACAGAUCUUCUGUUGAUAUGGAUGCAGUUCACAGACUAAAUGUCGGUCGGGGAAGAUGUAUUCUUCUCAUAAGAUAUAGUCGGACCUCUCCUUAAUGGGAGCUAGCGGAUGAAGUGAUGCAACACUGGAGCCGCUGGGAACUAAUUUGUAUGCGAAAGUAUAUUGAUUAGUUUUGGAGUACUCGUGGUCG
Summary of the method: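 Pooled colonies went to amplicon sequencing on an Illumina HiSeq 2500 after six replicate transformations. The plates were LB agar with 100 μg/mL carbenicillin, 50 μM IPTG and 0.2% rhamnose, with or without 25 μg/mL kanamycin, incubated overnight at 37°C or 30°C. The E. coli BL21(DE3) library had all eight P1ex-region intron nucleotides randomised, the intron placed in the knt kanamycin-resistance gene on pET-22b(+). DiMSum fitness is the error-weighted combination of replicate fold changes, kanamycin against none, normalised to wild type.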

**Q.** With AGCAAGCAAUAUUACGAGCC as the sequence, how does the “self-splicing fitness (ln)” value (30 °C) read?
**A.** -1.65 ± 0.37

**Q.** With ACGAAGCAAUAUUACGCUGA as the sequence, how does the “self-splicing fitness (ln)” value (30 °C) read?
**A.** -0.881 ± 0.11

**Q.** And the “self-splicing fitness (ln)” value (37 °C)?
**A.** -0.99 ± 0.1

**Q.** For GUCGAGCAAUAUUACGAGUU, which “self-splicing fitness (ln)” value (30 °C) is on record?
**A.** -2.66 ± 0.18

**Q.** What about the “self-splicing fitness (ln)” value (37 °C) of the same sequence?
**A.** -2.52 ± 0.28

**Q.** With AAAAAGCAAUAUUACGGACG as the sequence, how does the “self-splicing fitness (ln)” value (30 °C) read?
**A.** -0.378 ± 0.064

**Q.** What about the “self-splicing fitness (ln)” value (37 °C) of the same sequence?
**A.** 0.25 ± 0.084

**Q.** What does the source list for GGAUAGCAAUAUUACGUCUA?
**A.** self-splicing fitness (ln) (30 °C): -0.367 ± 0.087; self-splicing fitness (ln) (37 °C): -0.516 ± 0.088

**Q.** With AUGUAGCAAUAUUACGUAAC as the sequence, how does the “self-splicing fitness (ln)” value (30 °C) read?
**A.** -2.96 ± 0.17

**Q.** What about the “self-splicing fitness (ln)” value (37 °C) of the same sequence?
**A.** -1.54 ± 0.16

**Q.** With GUCGAGCAAUAUUACGGAGA as the sequence, how does the “self-splicing fitness (ln)” value (30 °C) read?
**A.** -2.84 ± 0.23

**Q.** And the “self-splicing fitness (ln)” value (37 °C)?
**A.** -2.47 ± 0.31

**Q.** Which “self-splicing fitness (ln)” value (30 °C) does the source give for ACAAAGCAAUAUUACGCGUG here?
**A.** -1.5 ± 0.043

**Q.** What about the “self-splicing fitness (ln)” value (37 °C) of the same sequence?
**A.** -0.274 ± 0.057

**Q.** Which results are given for UGGGAGCAAUAUUACGCGUU?
**A.** self-splicing fitness (ln) (30 °C): -2.33 ± 0.28; self-splicing fitness (ln) (37 °C): -2.02 ± 0.44

**Q.** Which results are given for UUUUAGCAAUAUUACGCUCC?
**A.** self-splicing fitness (ln) (30 °C): -1.4 ± 0.33; self-splicing fitness (ln) (37 °C): -1.25 ± 0.45

**Q.** For CCAAAGCAAUAUUACGGGUU, which “self-splicing fitness (ln)” value (30 °C) is on record?
**A.** -2.96 ± 0.15

**Q.** What about the “self-splicing fitness (ln)” value (37 °C) of the same sequence?
**A.** -2.5 ± 0.16

**Q.** Which “self-splicing fitness (ln)” value (30 °C) does the source give for ACUAAGCAAUAUUACGACGU here?
**A.** -0.322 ± 0.066

**Q.** And the “self-splicing fitness (ln)” value (37 °C)?
**A.** 0.158 ± 0.082

**Q.** Which results are given for ACACAGCAAUAUUACGUCUA?
**A.** self-splicing fitness (ln) (30 °C): -1.27 ± 0.072; self-splicing fitness (ln) (37 °C): -0.282 ± 0.072

**Q.** For CAAAAGCAAUAUUACGUCAC, which “self-splicing fitness (ln)” value (30 °C) is on record?
**A.** -3.63 ± 0.28

**Q.** And the “self-splicing fitness (ln)” value (37 °C)?
**A.** -2.06 ± 0.2

**Q.** For UCACAGCAAUAUUACGGGUG, which “self-splicing fitness (ln)” value (30 °C) is on record?
**A.** -2.37 ± 0.09

**Q.** What about the “self-splicing fitness (ln)” value (37 °C) of the same sequence?
**A.** -1.67 ± 0.083

**Q.** Which “self-splicing fitness (ln)” value (30 °C) does the source give for UCGGAGCAAUAUUACGUGAA here?
**A.** -3.41 ± 0.39

**Q.** What about the “self-splicing fitness (ln)” value (37 °C) of the same sequence?
**A.** -1.63 ± 0.14

**Q.** Which results are given for CGGAAGCAAUAUUACGCCAU?
**A.** self-splicing fitness (ln) (30 °C): -3.61 ± 0.34; self-splicing fitness (ln) (37 °C): -2.84 ± 0.32

**Q.** For CAUGAGCAAUAUUACGCAGU, which “self-splicing fitness (ln)” value (30 °C) is on record?
**A.** -4.2 ± 0.39

**Q.** And the “self-splicing fitness (ln)” value (37 °C)?
**A.** -2.63 ± 0.23

**Q.** For CCUAAGCAAUAUUACGCCUU, which “self-splicing fitness (ln)” value (30 °C) is on record?
**A.** -3.22 ± 0.21

**Q.** What about the “self-splicing fitness (ln)” value (37 °C) of the same sequence?
**A.** -2.79 ± 0.26

**Q.** What does the source list for CACGAGCAAUAUUACGUGUA?
**A.** self-splicing fitness (ln) (30 °C): -3.1 ± 0.21; self-splicing fitness (ln) (37 °C): -2.88 ± 0.2

**Q.** What does the source list for CCGCAGCAAUAUUACGUUAG?
**A.** self-splicing fitness (ln) (30 °C): -1.11 ± 0.064; self-splicing fitness (ln) (37 °C): -0.553 ± 0.076

**Q.** With CACCAGCAAUAUUACGAGAU as the sequence, how does the “self-splicing fitness (ln)” value (30 °C) read?
**A.** -3.87 ± 0.17

**Q.** And the “self-splicing fitness (ln)” value (37 °C)?
**A.** -2.42 ± 0.16

**Q.** For GCCGAGCAAUAUUACGUAAA, which “self-splicing fitness (ln)” value (30 °C) is on record?
**A.** -2.41 ± 0.14

**Q.** And the “self-splicing fitness (ln)” value (37 °C)?
**A.** -1.36 ± 0.17

**Q.** For CUUUAGCAAUAUUACGUAAC, which “self-splicing fitness (ln)” value (37 °C) is on record?
**A.** -1.64 ± 0.37

**Q.** Which “self-splicing fitness (ln)” value (30 °C) does the source give for UGAGAGCAAUAUUACGGGUG here?
**A.** -3.65 ± 0.19

**Q.** And the “self-splicing fitness (ln)” value (37 °C)?
**A.** -2.11 ± 0.19

**Q.** Which “self-splicing fitness (ln)” value (30 °C) does the source give for CCGCAGCAAUAUUACGGUGG here?
**A.** -3.11 ± 0.12

**Q.** What about the “self-splicing fitness (ln)” value (37 °C) of the same sequence?
**A.** -3.48 ± 0.2

**Q.** What does the source list for UAUAAGCAAUAUUACGAACG?
**A.** self-splicing fitness (ln) (30 °C): -0.609 ± 0.12; self-splicing fitness (ln) (37 °C): 0.622 ± 0.15

**Q.** Which “self-splicing fitness (ln)” value (30 °C) does the source give for GAAUAGCAAUAUUACGUGUG here?
**A.** -2.23 ± 0.07

**Q.** What about the “self-splicing fitness (ln)” value (37 °C) of the same sequence?
**A.** -1.52 ± 0.073

**Q.** For CCCGAGCAAUAUUACGAGUC, which “self-splicing fitness (ln)” value (30 °C) is on record?
**A.** -2.67 ± 0.31

**Q.** What about the “self-splicing fitness (ln)” value (37 °C) of the same sequence?
**A.** -1.69 ± 0.35

**Q.** What does the source list for AGUUAGCAAUAUUACGAUAA?
**A.** self-splicing fitness (ln) (30 °C): -2.31 ± 0.21; self-splicing fitness (ln) (37 °C): -0.658 ± 0.22

**Q.** With UGACAGCAAUAUUACGUCGC as the sequence, how does the “self-splicing fitness (ln)” value (37 °C) read?
**A.** -1.64 ± 0.45

**Q.** With GAGAAGCAAUAUUACGACGA as the sequence, how does the “self-splicing fitness (ln)” value (30 °C) read?
**A.** -0.554 ± 0.066

**Q.** And the “self-splicing fitness (ln)” value (37 °C)?
**A.** -0.104 ± 0.09

**Q.** For CCAUAGCAAUAUUACGUGAA, which “self-splicing fitness (ln)” value (30 °C) is on record?
**A.** -3.25 ± 0.21

**Q.** And the “self-splicing fitness (ln)” value (37 °C)?
**A.** -2.07 ± 0.26

**Q.** What does the source list for CCUUAGCAAUAUUACGUAGG?
**A.** self-splicing fitness (ln) (30 °C): -2.83 ± 0.14; self-splicing fitness (ln) (37 °C): -2.83 ± 0.18

**Q.** For GCUCAGCAAUAUUACGUGCC, which “self-splicing fitness (ln)” value (37 °C) is on record?
**A.** -2.56 ± 0.23

**Q.** For CGCGAGCAAUAUUACGUACA, which “self-splicing fitness (ln)” value (37 °C) is on record?
**A.** -2.71 ± 0.43

**Q.** Which results are given for ACUAAGCAAUAUUACGUCAA?
**A.** self-splicing fitness (ln) (30 °C): -3.07 ± 0.17; self-splicing fitness (ln) (37 °C): -1.35 ± 0.14

**Q.** Which “self-splicing fitness (ln)” value (30 °C) does the source give for UUAAAGCAAUAUUACGAUAG here?
**A.** -0.00915 ± 0.088

**Q.** What about the “self-splicing fitness (ln)” value (37 °C) of the same sequence?
**A.** -0.00163 ± 0.12

**Q.** Which “self-splicing fitness (ln)” value (30 °C) does the source give for AGCGAGCAAUAUUACGCGAG here?
**A.** -1.35 ± 0.22

**Q.** And the “self-splicing fitness (ln)” value (37 °C)?
**A.** -3.05 ± 0.4

**Q.** For GUACAGCAAUAUUACGUAUU, which “self-splicing fitness (ln)” value (30 °C) is on record?
**A.** -3.45 ± 0.14

**Q.** What about the “self-splicing fitness (ln)” value (37 °C) of the same sequence?
**A.** -2.45 ± 0.17

**Q.** Which results are given for GUUCAGCAAUAUUACGUUAC?
**A.** self-splicing fitness (ln) (30 °C): -1.98 ± 0.13; self-splicing fitness (ln) (37 °C): -1 ± 0.094

**Q.** Which “self-splicing fitness (ln)” value (30 °C) does the source give for GACUAGCAAUAUUACGGUAC here?
**A.** -2.1 ± 0.2

**Q.** What about the “self-splicing fitness (ln)” value (37 °C) of the same sequence?
**A.** -1.2 ± 0.18

**Q.** For GUGAAGCAAUAUUACGGUCG, which “self-splicing fitness (ln)” value (30 °C) is on record?
**A.** -0.124 ± 0.063

**Q.** And the “self-splicing fitness (ln)” value (37 °C)?
**A.** -0.0595 ± 0.085

**Q.** Which “self-splicing fitness (ln)” value (30 °C) does the source give for CCCUAGCAAUAUUACGAAUG here?
**A.** -4.25 ± 0.46

**Q.** Which results are given for CAACAGCAAUAUUACGGGAC?
**A.** self-splicing fitness (ln) (30 °C): -4.18 ± 0.17; self-splicing fitness (ln) (37 °C): -2.99 ± 0.16

**Q.** For UGUGAGCAAUAUUACGAGGC, which “self-splicing fitness (ln)” value (30 °C) is on record?
**A.** -3.2 ± 0.28

**Q.** And the “self-splicing fitness (ln)” value (37 °C)?
**A.** -3.1 ± 0.36

**Q.** For CCUCAGCAAUAUUACGGCGG, which “self-splicing fitness (ln)” value (30 °C) is on record?
**A.** -3.33 ± 0.15

**Q.** And the “self-splicing fitness (ln)” value (37 °C)?
**A.** -3.35 ± 0.35

**Q.** For UGAGAGCAAUAUUACGAACA, which “self-splicing fitness (ln)” value (30 °C) is on record?
**A.** -0.706 ± 0.27

**Q.** What about the “self-splicing fitness (ln)” value (37 °C) of the same sequence?
**A.** -0.855 ± 0.2

**Q.** What does the source list for CGUCAGCAAUAUUACGUCGA?
**A.** self-splicing fitness (ln) (30 °C): -2.18 ± 0.1; self-splicing fitness (ln) (37 °C): -1.77 ± 0.14
